Laboratory results taken from article doi:10.1101/2020.12.29.424682.

Target: SARS-CoV-2 Spike protein S1 (SARS-CoV-2) (UniProt P0DTC2)
Experiment: BLI

With “peptide … (sequence 24-42 of the ACE2 α1 domain)” the IC50 was 700 nM and the peptide concentration of half effect on koff of the S1-ACE2 complex was 0.6 µM.
